Experiments:
[1] = biological target: T1, MMP-7-MMP-2 tandem substrate TAMRA-G-K-G-V-P-L-S-L-T-M-Ahx-G-P-L-G-V-R-G-C-CONH2 with 20 kDa PEG, on ligand (biotin) TSACs (Example 3) (not fully specified)
T1 chain: GKGVPLSLTMGPLGVRGC

[2] = biological target: T2, MMP-2 substrate G-K(TAMRA)-G-P-L-G-V-R-G-C-CONH2 with 20 kDa PEG, on ligand (biotin) TSACs (Example 3) (not fully specified)
T2 chain: GKGPLGVRGC

[3] = biological target: T3, MMP-7 substrate G-K(TAMRA)-G-V-P-L-S-L-T-M-G-C-CONH2 with 20 kDa PEG, on receptor (NeutrAvidin) TSACs (Example 3) (not fully specified)
T3 chain: GKGVPLSLTMGC

B1: catalytic domain of matrix metalloproteinase-7 (MMP-7; Biomol) (protein)
chain: YSLFPNSPKWTSKVVTYRIVSYTRDLPHITVDRLVSKALNMWGKEIPLHFRKVVWGTADIMIGFARGAHGDSYPFDGPGNTLAHAFAPGTGLGGDAHFDEDERWTDGSSLGINFLYAATHELGHSLGMGHSSDPNAVMYPTYGNGDPQNFKLSQDDIKGIQKLYGKRSNSRKK
- hydrodynamic radius increase in DLS [1]: Hydrodynamic radii increased more than 5-fold in the presence of either enzyme or both enzymes
- TSAC assembly in DLS [2]: Addition of 0.4 µg MMP-2 actuates TSAC assembly, while 0.4 µg MMP-7 or no enzyme is insufficient
- TSAC assembly in DLS [3]: addition of 0.4 µg MMP-7 induces assembly, while 0.4 µg MMP-2 cannot

Source: patent US20090246142
